Experimental data taken from PMC8334859, “MIR156-Targeted SPL9 Is Phosphorylated by SnRK2s and Interacts With ABI5 to Enhance ABA Responses in Arabidopsis” (Frontiers in Plant Science, 2021).

T1: ABI5-GST (Arabidopsis thaliana, UniProt Q9SJN0 1-442)
T1 construct: ABI5, Arabidopsis thaliana, At2g36270, full-length CDS in pGEX4T-1; printed both as ABI5-GST and as GST-ABI5; also called GST-ABI5; source: Escherichia coli transetta
T1 sequence (looked up): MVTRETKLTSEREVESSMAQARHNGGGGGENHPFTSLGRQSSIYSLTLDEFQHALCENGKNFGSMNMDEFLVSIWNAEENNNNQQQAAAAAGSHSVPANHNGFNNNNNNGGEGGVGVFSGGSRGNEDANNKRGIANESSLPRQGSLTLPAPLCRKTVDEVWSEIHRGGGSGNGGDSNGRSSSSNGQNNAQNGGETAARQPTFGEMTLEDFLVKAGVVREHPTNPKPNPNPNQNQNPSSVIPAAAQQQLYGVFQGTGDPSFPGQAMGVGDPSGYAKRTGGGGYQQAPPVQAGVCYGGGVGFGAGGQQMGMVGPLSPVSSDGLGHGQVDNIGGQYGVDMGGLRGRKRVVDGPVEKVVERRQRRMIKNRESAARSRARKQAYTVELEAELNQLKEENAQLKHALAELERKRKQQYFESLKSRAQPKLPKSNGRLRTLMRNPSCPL


Columns and labels:
ABI5-GST [1] = target: T1, ABI5-GST; test: pull-down; in vitro; fusion proteins incubated with glutathione resin overnight in column buffer (20 mM Tris-HCl pH 7.5, 200 mM NaCl, 1 mM PMSF, 1 mM DTT); blots with anti-GST and anti-MBP; conditions: both partners purified
ABI5-GST [2] = target: T1, ABI5-GST; test: pull-down; in vitro; SPL3 and ABI5 fusion proteins incubated with amylose resin overnight in column buffer (20 mM Tris-HCl pH 7.5, 200 mM NaCl, 1 mM PMSF, 1 mM DTT); blots with anti-GST and anti-MBP; conditions: both partners purified

Row | Binder | binding result (ABI5-GST [1]) | binding result (ABI5-GST [2])
1 | MBP-SPL9 (natural protein, Arabidopsis thaliana, UniProt Q700W2 1-375, looked up, SPL9, Arabidopsis thaliana, At2g42200, full-length CDS in pMAL-c2X; source: Escherichia coli transetta, purified) MEMGSNSGPGHGPGQAESGGSSTESSSFSGGLMFGQKIYFEDGGGGSGSSSSGGRSNRRVRGGGSGQSGQIPRCQVEGCGMDLTNAKGYYSRHRVCGVHSKTPKVTVAGIEQRFCQQCSRFHQLPEFDLEKRSCRRRLAGHNERRRKPQPASLSVLASRYGRIAPSLYENGDAGMNGSFLGNQEIGWPSSRTLDTRVMRRPVSSPSWQINPMNVFSQGSVGGGGTSFSSPEIMDTKLESYKGIGDSNCALSLLSNPHQPHDNNNNNNNNNNNNNNTWRASSGFGPMTVTMAQPPPAPSQHQYLNPPWVFKDNDNDMSPVLNLGRYTEPDNCQISSGTAMGEFELSDHHHQSRRQYMEDENTRAYDSSSHHTNWSL | binds | 
2 | MBP-SPL3 (natural protein, Arabidopsis thaliana, UniProt P93015 1-131, looked up, SPL3, Arabidopsis thaliana, At2g33810, full-length CDS in pMAL-c2X; source: Escherichia coli transetta) MSMRRSKAEGKRSLRELSEEEEEEEETEDEDTFEEEEALEKKQKGKATSSSGVCQVESCTADMSKAKQYHKRHKVCQFHAKAPHVRISGLHQRFCQQCSRFHALSEFDEAKRSCRRRLAGHNERRRKSTTD |  | binds
